Data: US11142588B2, “Polypeptides which bind C-X-C chemokine receptor type 4 (CXCR4) and methods of treating or reducing the risk of fibrosis and cancer” (AdAlta Limited, priority 2015, dated 2021)

What was measured:
[1] = tested on: normal and IPF lung fibroblasts; assay: Wound healing invasion assay of lung fibroblasts; assay type: cell-based, human; conditions: 130 μg/ml
Method in brief: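 Normal and slow- or rapid-progressing IPF lung fibroblasts were plated overnight on basement membrane extract (50 μg/ml coating), then overlaid with BME polymerised at 37° C for 15 min. Wound invasion was imaged every 2 h for about 50 h and quantified by image analysis.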

CXCR4 [2] = molecular target: T1, CXCR4 (Homo sapiens, UniProt P61073); assay: HitHunter cAMP assay in antagonist mode; assay type: cell-based; conditions: SDF-1 at EC80, forskolin 15 μM, read-out: cAMP inhibition IC50
Description: Hit Hunter® cAMP assays monitor the activation of a GPCR via an inhibitory regulative G-protein (Gi) and a stimulative regulative G-protein (Gs) secondary messenger signaling in a homogenous, non-imaging assay format using a technology developed by DiscoveRx called Enzyme Fragment Complementation (EFC) with β-galactosidase (β-Gal) as the functional reporter. The enzyme is split into two complementary portions: EA for Enzyme Acceptor and ED for Enzyme Donor. ED is fused to cAMP and in the assay competes with cAMP generated by cells for binding to a cAMP-specific antibody. Active β-Gal is formed by complementation of exogenous EA to any unbound ED-cAMP.
cAMP Hunter cell lines were expanded from freezer stocks according to standard procedures. The cells were then seeded in a total volume of 20 μL into white walled, 384-well microplates and incubated at 37° C. for the appropriate time prior to testing. cAMP modulation was determined using the DiscoveRx HitHunter cAMP XS+ assay according to manufacturer's instructions. […]
After appropriate compound incubation, assay signal was generated through incubation with 20 μL cAMP XS+ ED/CL lysis cocktail for one hour followed by incubation with 20 μL cAMP XS+ EA reagent for three hours at room temperature. Microplates were read following signal generation with a PerkinElmer Envision™ instrument for chemiluminescent signal detection.

CXCR4 [3] = molecular target: T1, CXCR4; assay: β-arrestin BRET assay, antagonist mode with 100 nM SDF-1; assay type: cell-based; parameters: expressed in transfected cells; host or cells: HEK293FT; conditions: read-out: IC50 (nM) in β-Arrestin BRET assay (Antagonist mode in the presence of 100 nM SDF-1)
Method in brief: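 HEK293FT cells transiently co-expressed CXCR4/Rluc8 and β-arrestin2/Venus and were read at 37 °C with coelenterazine h or EnduRen substrate. i-Bodies were tested at ten concentrations with 100 nM SDF-1. BRET signal is the 520-540/400-475 nm emission ratio minus the vehicle ratio; mean±S.E.M. of four experiments in duplicate.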

CXCR4 [4] = molecular target: T1, CXCR4; assay: Calcium flux assay (Screen Quest Fluo-8, FLIPR) in antagonist mode; assay type: cell-based; conditions: SDF-1 at EC80
Protocol: Inhibition of Ca2+ influx by controls or i-bodies (IC50) was then determined.
Mammalian cells stably expressing human CXCR4 receptor were produced in-house by Multispan, Inc (catalog no. C1004-1). Control agonist used was SDF-1 (Peprotech, Cat #300-28A).
Cells were seeded in 384-well plate at an appropriate density and cultured overnight. Calcium assay was conducted according to the manufacturer's protocols. The calcium dye loading buffer was added to the cells and incubated for one hour at 37° C. Calcium flux was monitored for 120 seconds with compound injected into the wells at 19th second. In antagonist mode, carrier or compounds were preincubated with the cells for 30 minutes before calcium flux measurement with the control agonist at EC80 concentration obtained from dose-response curve.

T1 sequence (P61073 whole entry): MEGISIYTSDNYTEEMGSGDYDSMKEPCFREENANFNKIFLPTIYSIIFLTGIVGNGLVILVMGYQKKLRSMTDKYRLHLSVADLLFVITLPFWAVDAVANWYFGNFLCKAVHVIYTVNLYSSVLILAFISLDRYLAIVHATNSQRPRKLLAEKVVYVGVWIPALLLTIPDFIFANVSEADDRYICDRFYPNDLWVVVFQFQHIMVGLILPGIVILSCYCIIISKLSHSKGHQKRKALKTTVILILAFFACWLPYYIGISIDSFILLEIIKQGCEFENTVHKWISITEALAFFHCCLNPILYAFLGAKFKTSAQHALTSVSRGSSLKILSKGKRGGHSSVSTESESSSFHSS

Molecule	invasion of normal lung fibroblasts [1]	migration of IPF lung fibroblasts ([1]; slow and rapid IPF progressors)	IC50 (CXCR4 [2]) [µM]	IC50 (CXCR4 [3]) [nM]	Calcium Inhibition EC50 (CXCR4 [4])
AM3-114: affinity matured CXCR4 i-body, SEQ ID NO: 40	neither i-body had any effect	specifically inhibited migration	–	–	–
AM3-523: affinity matured CXCR4 i-body, SEQ ID NO: 56 (protein, protein sequence encoding AM3-523) LQVDIVPSQGEISVGESKFFLCQVAGSGSHMRISWFSPNGEKLTPNQQRISVVWNDDSSSTLTIYNANIDDAGIYKCVVWVGGYRHRALVLGEATVNVKIFQ	–	–	0.225	12700	uM
